In patent publication JP2008532476A (dated 2008):

Molecular target: T1, recombinant mouse Tie1-Fc (mouse, UniProt Q06806 23-755)
T1 construct: extracellular domain; also called mouse Tie1-Fc antigen; mouse Tie1-Fc fusion protein; not shown: Fc
T1 sequence (looked up): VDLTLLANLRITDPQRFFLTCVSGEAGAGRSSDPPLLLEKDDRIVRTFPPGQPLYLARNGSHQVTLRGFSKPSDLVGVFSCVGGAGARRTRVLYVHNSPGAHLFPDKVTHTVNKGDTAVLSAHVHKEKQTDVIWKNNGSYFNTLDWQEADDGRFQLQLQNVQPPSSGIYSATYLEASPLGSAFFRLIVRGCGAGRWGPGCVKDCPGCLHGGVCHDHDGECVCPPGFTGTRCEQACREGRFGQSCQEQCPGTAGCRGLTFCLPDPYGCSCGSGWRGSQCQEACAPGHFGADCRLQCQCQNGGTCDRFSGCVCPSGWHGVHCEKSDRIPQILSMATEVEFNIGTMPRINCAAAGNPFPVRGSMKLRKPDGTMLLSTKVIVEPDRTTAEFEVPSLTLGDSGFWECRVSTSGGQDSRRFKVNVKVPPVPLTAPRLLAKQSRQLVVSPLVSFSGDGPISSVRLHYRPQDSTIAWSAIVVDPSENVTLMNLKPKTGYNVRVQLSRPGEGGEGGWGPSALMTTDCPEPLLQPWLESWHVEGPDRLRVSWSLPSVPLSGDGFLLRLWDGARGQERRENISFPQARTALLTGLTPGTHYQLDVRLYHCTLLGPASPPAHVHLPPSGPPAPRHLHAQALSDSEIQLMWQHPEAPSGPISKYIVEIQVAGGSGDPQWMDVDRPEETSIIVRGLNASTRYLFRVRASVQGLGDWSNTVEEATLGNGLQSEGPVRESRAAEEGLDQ
Assay: SPR (BIAcore 3000), Fab as analyte over mouse Tie1-Fc immobilised on a sensor chip

Kd: ~3 nM
B1: E3b Fab (germline E3 (DX-2220) Fab) (Fab, V domains shown)
VH: EVQLLESGGGLVQPGGSLRLSCAASGFTFSMYGMVWVRQAPGKGLEWVSVISPSGGNTGYADSVKGRFTISRDNSKNTLYLQMNSLRAEDTAVYYCARAPRGYSYGYYYWGQGTLVTVSS
VL: DIQMTQSPSSLSASVGDRVTITCRASQGIGHYLAWYQQKPGKVPKLLIYTASTLQSGVPSRFSGSGSGTDFTLTISSLQPEDVATYYCQQFNSYPHTFGQGTRLEIK
